Laboratory results taken from PMC11708914.

Key:
[1] = target: USUV HA-NS5 (HA-tagged Usutu virus NS5) (Usutu virus) (UniProt Q5WPU5); test: co-IP; anti-HA agarose beads; lysates of transfected 293 T cells (lysis buffer with protease inhibitors and benzonase), overnight at 4 °C; UBA1 detected by Western blot
[2] = target: ZIKV HA-NS5 (full-length Zika virus NS5 fused to an HA-tag in its N-terminus) (Zika virus); test: as above
[3] = target: WNV HA-NS5 (HA-tagged West Nile virus NS5) (West Nile virus) (UniProt P06935); test: as above
Sequence of UniProt P06935 (P06935 2526-3430): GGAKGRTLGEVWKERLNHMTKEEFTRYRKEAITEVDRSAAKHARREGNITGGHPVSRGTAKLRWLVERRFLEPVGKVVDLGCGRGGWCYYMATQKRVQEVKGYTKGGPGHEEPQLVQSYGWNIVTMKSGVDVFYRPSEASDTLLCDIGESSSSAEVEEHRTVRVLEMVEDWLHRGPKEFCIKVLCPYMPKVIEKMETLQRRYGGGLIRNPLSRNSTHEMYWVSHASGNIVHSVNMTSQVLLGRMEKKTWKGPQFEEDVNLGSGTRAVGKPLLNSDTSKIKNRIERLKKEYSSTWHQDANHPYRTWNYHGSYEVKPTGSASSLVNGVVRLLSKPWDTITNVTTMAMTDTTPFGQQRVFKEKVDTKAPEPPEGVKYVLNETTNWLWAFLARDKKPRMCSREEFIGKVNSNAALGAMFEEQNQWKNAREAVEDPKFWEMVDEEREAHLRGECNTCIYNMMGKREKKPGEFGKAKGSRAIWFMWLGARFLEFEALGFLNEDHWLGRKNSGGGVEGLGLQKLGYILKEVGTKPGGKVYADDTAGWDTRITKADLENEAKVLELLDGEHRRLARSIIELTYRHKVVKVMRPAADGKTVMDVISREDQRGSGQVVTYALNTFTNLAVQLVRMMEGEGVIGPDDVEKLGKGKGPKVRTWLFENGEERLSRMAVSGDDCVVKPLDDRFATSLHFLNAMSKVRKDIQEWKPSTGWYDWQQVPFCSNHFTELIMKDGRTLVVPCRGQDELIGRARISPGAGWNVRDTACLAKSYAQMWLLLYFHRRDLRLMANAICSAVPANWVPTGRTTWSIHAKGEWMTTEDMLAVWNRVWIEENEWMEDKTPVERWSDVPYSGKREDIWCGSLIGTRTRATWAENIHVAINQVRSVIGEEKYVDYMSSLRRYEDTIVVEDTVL

[4] = target: Recombinant His-tagged ZIKV NS5 (Zika virus); test: pull-down; Ni-NTA agarose resin; 3 mg of whole-cell protein from 293 T cells incubated with 90 µg of recombinant His-tagged bait (BSA as control); UBA1 detected by Western blot

Sequence of UniProt Q5WPU5 (Q5WPU5 2530-3434): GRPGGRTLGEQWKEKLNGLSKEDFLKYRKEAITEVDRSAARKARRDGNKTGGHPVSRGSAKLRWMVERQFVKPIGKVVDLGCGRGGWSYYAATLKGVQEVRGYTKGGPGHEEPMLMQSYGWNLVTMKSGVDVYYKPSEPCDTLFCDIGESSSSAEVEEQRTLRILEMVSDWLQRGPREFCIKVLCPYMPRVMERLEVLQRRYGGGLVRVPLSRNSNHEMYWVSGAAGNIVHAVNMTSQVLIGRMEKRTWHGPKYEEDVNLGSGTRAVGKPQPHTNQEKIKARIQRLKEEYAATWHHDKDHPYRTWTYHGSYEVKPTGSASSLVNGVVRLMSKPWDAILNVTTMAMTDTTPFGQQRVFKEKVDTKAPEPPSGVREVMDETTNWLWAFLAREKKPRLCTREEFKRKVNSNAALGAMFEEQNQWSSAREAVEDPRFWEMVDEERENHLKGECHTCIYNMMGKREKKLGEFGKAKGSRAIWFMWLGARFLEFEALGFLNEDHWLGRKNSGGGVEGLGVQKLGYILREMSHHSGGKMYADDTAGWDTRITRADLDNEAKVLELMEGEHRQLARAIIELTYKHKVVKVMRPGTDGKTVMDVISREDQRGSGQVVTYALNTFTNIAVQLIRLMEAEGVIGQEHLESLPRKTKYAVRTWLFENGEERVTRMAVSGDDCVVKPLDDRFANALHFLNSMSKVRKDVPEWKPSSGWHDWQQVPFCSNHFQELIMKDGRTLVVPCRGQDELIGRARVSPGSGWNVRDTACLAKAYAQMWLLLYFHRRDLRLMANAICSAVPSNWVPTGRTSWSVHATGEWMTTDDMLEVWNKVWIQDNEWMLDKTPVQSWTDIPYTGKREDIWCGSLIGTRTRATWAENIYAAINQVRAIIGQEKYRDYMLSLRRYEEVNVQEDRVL

Ubiquitin-like modifier-activating enzyme 1 (UBA1), endogenous
fold enrichment over controls [1]: > 100 fold
fold enrichment over controls (empty vector or EYFP) [2]: > 100 fold
fold enrichment over controls [3]: > 100 fold
amount of UBA1 relative to controls [4]: > 4 times
